Test results from patent US20100272709A1 (GENERAL HOSPITAL, published 2010).

Experiments:
[1] = target: wild type dynamin (dynWT; recombinant dynamin 1) (UniProt Q05193)
[2] = target: dynK44A (dominant-negative dynamin mutant that cannot bind GTP) (UniProt Q05193); assay: FLIM/FRET in fixed podocytes; donor GTPase-a488, acceptor Hudy1-a568; self-assembly
[3] = target: dynK44A (dominant-negative dynamin mutant that cannot bind GTP) (UniProt Q05193); assay: FLIM/FRET in fixed podocytes treated with cytochalasin D; donor GTPase-a488, acceptor Hudy1-a568; self-assembly
[4] = target: mouse monoclonal anti-dynamin GTPase antibody (Stressgene), recognizes the N-terminal GTPase domain; assay: FLIM/FRET in fixed podocytes; lifetime of donor GTPase-Alexa488 with acceptor DAM-Alexa568; + control
[5] = target: mouse monoclonal anti-dynamin GTPase antibody (Stressgene), recognizes the N-terminal GTPase domain; assay: FLIM/FRET in fixed podocytes; lifetime of donor GTPase-a488 with acceptor DAM-a568; + control
[6] = target: mouse monoclonal anti-dynamin GTPase antibody (Stressgene), recognizes the N-terminal GTPase domain; assay: FLIM/FRET in fixed podocytes; lifetime of donor GTPase-Alexa488 with acceptor GAR-Alexa568; - control
EYFP-dynK44A fusion = target: T1, EYFP-dynK44A fusion (UniProt Q05193); assay: FLIM/FRET in live COS cells; lifetime of the ECFP donor; self-assembly
T1 sequence (looked up): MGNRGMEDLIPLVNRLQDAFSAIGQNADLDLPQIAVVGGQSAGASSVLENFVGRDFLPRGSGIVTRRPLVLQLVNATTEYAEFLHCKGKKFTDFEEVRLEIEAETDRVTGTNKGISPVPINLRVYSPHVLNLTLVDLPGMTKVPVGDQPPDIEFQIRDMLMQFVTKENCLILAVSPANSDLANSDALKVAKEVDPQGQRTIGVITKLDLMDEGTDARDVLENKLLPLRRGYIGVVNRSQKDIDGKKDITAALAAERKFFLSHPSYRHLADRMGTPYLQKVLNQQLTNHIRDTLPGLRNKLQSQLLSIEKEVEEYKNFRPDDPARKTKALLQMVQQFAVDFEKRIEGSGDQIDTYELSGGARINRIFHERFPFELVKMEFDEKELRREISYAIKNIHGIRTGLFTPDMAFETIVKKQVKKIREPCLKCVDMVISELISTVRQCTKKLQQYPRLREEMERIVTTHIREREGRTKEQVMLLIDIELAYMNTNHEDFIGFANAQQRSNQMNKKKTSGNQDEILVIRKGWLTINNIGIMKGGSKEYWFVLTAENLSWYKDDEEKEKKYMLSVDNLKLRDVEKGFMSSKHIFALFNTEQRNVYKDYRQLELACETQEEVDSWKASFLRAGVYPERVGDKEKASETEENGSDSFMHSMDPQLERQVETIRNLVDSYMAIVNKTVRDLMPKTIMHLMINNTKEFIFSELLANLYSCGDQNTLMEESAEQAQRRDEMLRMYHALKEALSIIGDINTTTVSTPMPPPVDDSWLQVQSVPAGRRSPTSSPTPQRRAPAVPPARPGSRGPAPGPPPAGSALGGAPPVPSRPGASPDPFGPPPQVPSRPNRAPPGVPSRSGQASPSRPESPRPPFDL

[7] = target: dynI690K (assembly incompetent dynamin mutant) (UniProt Q05193); assay: FLIM/FRET in fixed podocytes; donor GTPase-a488, acceptor Hudy1-a568; self-assembly
[8] = target: dynI690K (assembly incompetent dynamin mutant) (UniProt Q05193); assay: FLIM/FRET in fixed podocytes treated with cytochalasin D; donor GTPase-a488, acceptor Hudy1-a568; self-assembly
[9] = target: dynK44A (dominant-negative dynamin mutant that cannot bind GTP), Q05193
[10] = target: wild type dynamin (dynWT; recombinant dynamin 1), Q05193
[11] = target: T2, dynR725A (GTP-hydrolysis impaired dynamin mutant)
T2 chain: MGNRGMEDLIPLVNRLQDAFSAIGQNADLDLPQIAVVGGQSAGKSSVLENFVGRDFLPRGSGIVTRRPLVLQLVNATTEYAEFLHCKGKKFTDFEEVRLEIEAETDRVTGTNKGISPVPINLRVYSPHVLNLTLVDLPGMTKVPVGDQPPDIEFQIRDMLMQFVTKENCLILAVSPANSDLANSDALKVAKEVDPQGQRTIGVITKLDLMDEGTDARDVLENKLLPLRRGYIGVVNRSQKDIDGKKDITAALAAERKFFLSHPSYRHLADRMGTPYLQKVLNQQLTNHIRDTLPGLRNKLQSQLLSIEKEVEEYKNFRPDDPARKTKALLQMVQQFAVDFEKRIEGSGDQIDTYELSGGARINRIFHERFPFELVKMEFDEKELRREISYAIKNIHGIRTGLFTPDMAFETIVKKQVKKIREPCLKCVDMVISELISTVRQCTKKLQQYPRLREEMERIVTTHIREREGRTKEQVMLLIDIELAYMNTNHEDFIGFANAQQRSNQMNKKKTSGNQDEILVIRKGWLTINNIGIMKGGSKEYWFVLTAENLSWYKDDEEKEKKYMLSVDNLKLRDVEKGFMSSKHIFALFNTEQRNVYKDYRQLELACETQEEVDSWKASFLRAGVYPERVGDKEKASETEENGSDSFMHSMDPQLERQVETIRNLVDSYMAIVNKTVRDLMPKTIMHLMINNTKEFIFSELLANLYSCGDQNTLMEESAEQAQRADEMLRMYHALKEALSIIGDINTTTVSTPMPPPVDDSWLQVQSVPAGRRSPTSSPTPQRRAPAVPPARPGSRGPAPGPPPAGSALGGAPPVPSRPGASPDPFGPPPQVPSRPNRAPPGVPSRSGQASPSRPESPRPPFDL

## purified cathepsin L (commercial)
[1]
  cleavage of purified dynamin by CatL at pH 7.0 with GTP, Western blot: addition of GTP resulted in the generation of a prominent proteolytic fragment with a molecular weight of -40 kD (p40)
  cleavage of purified dynamin by CatL at pH 7.0 with GTPγS, Western blot: addition of GTPγS, (non-hydrolysable GTP analog) did not stimulate cleavage by CatL
  cleavage of purified dynamin by CatL at pH 7.0 without nucleotide, Western blot: CatL did not cause significant cleavage of purified dynamin at pH 7.0
  cleavage of recombinant dynamin 1 by purified cathepsin L at pH 7.0 with GTP, Western blot with GTPase antibody: addition of GTP in the assay resulted in significant cleavage of dynamin by cathepsin L
  cleavage of recombinant dynamin 1 by purified cathepsin L at pH 7.0 with GTPγS: Addition of GTPγS, non-hydrolyzable GTP homolog abolished dynamin cleavage by cathepsin L
  cleavage of recombinant dynamin by CatL at pH 5.0 and 6.0, silver staining: At pH 5.0 and 6.0, CatL was highly reactive towards recombinant dynamin, even in the absence of GTP
  cleavage of recombinant dynamin by CatL at pH 5.0 and 6.0 with GTPγS, silver staining: this proteolysis was completely inhibited by addition of GTP7S
  cleavage of recombinant dynamin by cathepsin L at pH 5.0 and 6.0: at pH 5.0 and 6.0 cathepsin L potently proteolyzed recombinant dynamin

## dynK44A (dominant-negative dynamin mutant that cannot bind GTP) (from UniProt Q05193 1-864) (enzyme)
[2]
  Mean Lifetime (γ1): 2520 ps
[3]
  Mean Lifetime (γ1): 2310 ps

## DAM-Alexa568 (secondary antibody used as positive control acceptor)
[4]
  Mean Lifetime (γ1): 1020
[5]
  Mean Lifetime (γ1): 1020

## goat anti-rabbit-alexa568 (GARalexa568), negative control acceptor (antibody)
[6]
  Mean Lifetime (γ1): 2420

## cathepsin B (CatB, Sigma)
[1]
  cleavage of purified dynamin by CatB, Western blot: incubation of dynamin with CatB generated p55 in a nucleotide-independent manner

B1: ECFP-dynK44A fusion (protein, UniProt Q05193 1-864, looked up, not shown: large carriers)
chain: MGNRGMEDLIPLVNRLQDAFSAIGQNADLDLPQIAVVGGQSAGASSVLENFVGRDFLPRGSGIVTRRPLVLQLVNATTEYAEFLHCKGKKFTDFEEVRLEIEAETDRVTGTNKGISPVPINLRVYSPHVLNLTLVDLPGMTKVPVGDQPPDIEFQIRDMLMQFVTKENCLILAVSPANSDLANSDALKVAKEVDPQGQRTIGVITKLDLMDEGTDARDVLENKLLPLRRGYIGVVNRSQKDIDGKKDITAALAAERKFFLSHPSYRHLADRMGTPYLQKVLNQQLTNHIRDTLPGLRNKLQSQLLSIEKEVEEYKNFRPDDPARKTKALLQMVQQFAVDFEKRIEGSGDQIDTYELSGGARINRIFHERFPFELVKMEFDEKELRREISYAIKNIHGIRTGLFTPDMAFETIVKKQVKKIREPCLKCVDMVISELISTVRQCTKKLQQYPRLREEMERIVTTHIREREGRTKEQVMLLIDIELAYMNTNHEDFIGFANAQQRSNQMNKKKTSGNQDEILVIRKGWLTINNIGIMKGGSKEYWFVLTAENLSWYKDDEEKEKKYMLSVDNLKLRDVEKGFMSSKHIFALFNTEQRNVYKDYRQLELACETQEEVDSWKASFLRAGVYPERVGDKEKASETEENGSDSFMHSMDPQLERQVETIRNLVDSYMAIVNKTVRDLMPKTIMHLMINNTKEFIFSELLANLYSCGDQNTLMEESAEQAQRRDEMLRMYHALKEALSIIGDINTTTVSTPMPPPVDDSWLQVQSVPAGRRSPTSSPTPQRRAPAVPPARPGSRGPAPGPPPAGSALGGAPPVPSRPGASPDPFGPPPQVPSRPNRAPPGVPSRSGQASPSRPESPRPPFDL
EYFP-dynK44A fusion
  Mean Lifetime (γ1) ps: 1860 ps

B2: dynI690K (assembly incompetent dynamin mutant) (enzyme, UniProt Q05193 1-864, looked up)
chain: MGNRGMEDLIPLVNRLQDAFSAIGQNADLDLPQIAVVGGQSAGKSSVLENFVGRDFLPRGSGIVTRRPLVLQLVNATTEYAEFLHCKGKKFTDFEEVRLEIEAETDRVTGTNKGISPVPINLRVYSPHVLNLTLVDLPGMTKVPVGDQPPDIEFQIRDMLMQFVTKENCLILAVSPANSDLANSDALKVAKEVDPQGQRTIGVITKLDLMDEGTDARDVLENKLLPLRRGYIGVVNRSQKDIDGKKDITAALAAERKFFLSHPSYRHLADRMGTPYLQKVLNQQLTNHIRDTLPGLRNKLQSQLLSIEKEVEEYKNFRPDDPARKTKALLQMVQQFAVDFEKRIEGSGDQIDTYELSGGARINRIFHERFPFELVKMEFDEKELRREISYAIKNIHGIRTGLFTPDMAFETIVKKQVKKIREPCLKCVDMVISELISTVRQCTKKLQQYPRLREEMERIVTTHIREREGRTKEQVMLLIDIELAYMNTNHEDFIGFANAQQRSNQMNKKKTSGNQDEILVIRKGWLTINNIGIMKGGSKEYWFVLTAENLSWYKDDEEKEKKYMLSVDNLKLRDVEKGFMSSKHIFALFNTEQRNVYKDYRQLELACETQEEVDSWKASFLRAGVYPERVGDKEKASETEENGSDSFMHSMDPQLERQVETIRNLVDSYMAIVNKTVRDLMPKTIMHLMKNNTKEFIFSELLANLYSCGDQNTLMEESAEQAQRRDEMLRMYHALKEALSIIGDINTTTVSTPMPPPVDDSWLQVQSVPAGRRSPTSSPTPQRRAPAVPPARPGSRGPAPGPPPAGSALGGAPPVPSRPGASPDPFGPPPQVPSRPNRAPPGVPSRSGQASPSRPESPRPPFDL
[7]
  Mean Lifetime (γ1): 2360 ps
[8]
  Mean Lifetime (γ1): 2430 ps

B3: endogenous mouse cathepsin L induced by LPS in podocytes and kidney (34 kD cytoplasmic short form) (protein)
chain: MRMIQLHNGEYSNGQHGFSMEMNAFGDMTNEEFRQVVNGYRHQKHKKGRLFQEPLMLKIPKSVDWREKGCVTPVKNQGQCGSCWAFSASGCLEGQMFLKTGKLISLSEQNLVDCSHAQGNQGCNGGLMDFAFQYIKENGGLDSEESYPYEAKDGSCKYRAEFAVANDTGFVDIPQQEKALMKAVATVGPISVAMDASHPSLQFYSSGIYYEPNCSSKNLDHGVLLVGYGYEGTDSNKNKYWLVKNSWGSEWGMEGYIKIAKDRDNHCGLATAASYPVVN
[9]
  p40 proteolytic fragment in cytosol of LPS-treated podocytes expressing dynK44A, Western blot: LPS treatment of podocytes expressing dynK44A, enzyme that cannot bind GTP, did not result in detectable levels of p40
[10]
  p40 proteolytic fragment in cytosol of LPS-treated podocytes expressing dynWT, Western blot: Addition of specific cathepsin L inhibitor (Z-FF-FMK, Calbiochem), to the tissue cultured podocytes treated with LPS resulted specifically in the loss of p40
[11]
  p40 proteolytic fragment in cytosol of LPS-treated podocytes expressing dynR725A, Western blot: LPS treatment of podocytes expressing dynR725A completely abolished presence of the p40
  p40 proteolytic fragment in cytosol of podocytes expressing dynR725A before LPS, Western blot: significant amount of p40 was present in cells expressing dynR725A prior to LPS treatment
